From patent EP4261227A1

Biological target: OXA-48-like carbapenemase (Klebsiella pneumoniae) (UniProt Q6XEC0)
Experiment: indirect ELISA, plate coated with 0.2 ug/mL OXA-48-like carbapenemase, purified antibody in doubling dilutions from 1:1000

Chain of UniProt Q6XEC0 (Q6XEC0 23-265 limits assumed): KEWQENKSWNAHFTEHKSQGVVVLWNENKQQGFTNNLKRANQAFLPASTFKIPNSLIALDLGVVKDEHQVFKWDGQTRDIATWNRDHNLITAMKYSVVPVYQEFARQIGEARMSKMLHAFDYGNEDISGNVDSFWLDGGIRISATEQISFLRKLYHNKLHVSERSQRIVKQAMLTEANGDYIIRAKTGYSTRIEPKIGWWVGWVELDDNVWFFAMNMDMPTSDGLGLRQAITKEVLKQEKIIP

B1: anti-OXA-48-like carbapenemase mouse mAb IB5 (antibody, V domains shown)
VH: EVMLVESGGGLVKPGGSLKLSCAASGFTFSTYAMSWVRLTPEKRLEWVATISSGGSYTSYPDSVKGRFTISRDNAKNTLYLQMSSLRSEDTAMYYCARRPEYAMDYWGQGTSVTVSS
VL: LVQHQPVSSYLAASPGETVTINCRASKSISKYLAWYQEKPGKTNKLLIYSGSTFQSGFPSGFSGSGSGTDFTLTVSSLEPEDFAIYYCQQHNEYPYVTFGGGTKLEIKR
titer (dilution factor (1:x) from 1 mg/mL): 1.28e+06
